The text below walks through data of patent US20190144550A1 (Pfizer, published 2019).

One assay has as its target T1, EGFR-mFc (human; mouse, UniProt P00533 25-645).
T1 construct: extracellular domain; Produced in HEK293 cells; also called recombinant EGFR-mFc; not shown: mouse IgG1-Fc domain
Description: flow cytometry, CAR T cells stained with mFc fusion protein, Day 4. From the text: To determine target binding specificity of the CARs, recombinant proteins EGFRvII-mFc and EGFR-mFc, which comprise of the extracellular domain of either human EGFRvIII or human wild-type EGFR, respectively, fused with mouse IgG1-Fc domain, were produced in HEK293 cells. […]
Background: A flow cytometer gives signals particle by particle.

Assay [1] concerns the target T2, Monomeric 8-histidine tagged human EGFRvIII extracellular domain (human, UniProt P00533 298-645).
T2 construct: Analyte in all SPR assays; not shown: 8-histidine tag
Description: SPR, captured by anti-mouse Fc, 37 C. From the text:
To generate human antibodies against EGFRvIII, transgenic AlivaMab mice (Ablexis LLC, San Francisco, Calif.) were immunized with alternating schedule of paraformaldehyde-fixed rat glioblastoma cell line expressing EGFRvIII, F98-npEGFRvIII (American Type Culture Collection, Manassas, Va.) and peptides (SEQ ID NO: 227: […]) directed to the junction region in EGFRvIII. Hybridomas were generated using standard techniques. To determine the binding affinity and specificity of these hybridomas to EGFRvIII, antibodies in culture supernatants were captured by anti-mouse Fc using Biacore™ T200 biosensor equipped with anti-mouse Fc coupled CM4 sensor chips (Biacore™ AB, Uppsala, Sweden—now GE Healthcare). Monomeric 8-histidine tagged human EGFRvIII extracellular domain was then injected as the analyte at 10-fold dilution series starting with top concentration 1000 nM. Affinity of anti-EGFRvIII antibodies towards human EGFRvIII was measured at 37° C.

Assay [2] deals with T3, human EGFRvIII expressed on cells (human, UniProt P00533 298-1210).
T3 construct: the F98-npEGFRvIII line was obtained from ATCC and its construct is not described; also called F98-npEGFRvIII; F98-EGFRvIII
The experiment in a line: flow cytometry, F98-npEGFRvIII against F98, F98-EGFRwt and A431 cells.

Assay [3] has as its target T4, 8-histidine tagged recombinant wild-type protein EGFRwt (UniProt P00533 25-645, limits assumed).
T4 construct: not shown: 8-histidine tag
Description: SPR, captured by anti-mouse Fc. A general note: SPR reads the build-up and loss of mass on a sensor chip optically.

Assay [4] deals with T3, human EGFRvIII expressed on cells. Description: flow cytometry, F98-npEGFRvIII cells.

B1: 32A10 EGFRvIII specific CAR (other)
chain: QVTLKESGPVLVKPTETLTLTCTVSGFSLSNARMGVSWIRQPPGKALEWLAHIFSTDEKSIRRSLRSRLTLSKDTSKSQVVLTMTNMDPVDTATYFCARDSSNYEGYFDYWGQGTLVTVSSGGGGSGGGGSGGGGSGGGGSEVVMTQSPATLSVSPGERVTLSCRASQSVSSNFAWYQQRPGQAPRLLLYGATTRATGLPGRFSGSGSGTENILTISSLQSEDFAIYFCQQYKDWPFTFGPGSKVDIKTTTPAPRPPTPAPTIASQPLSLRPEACRPAAGGAVHTRGLDFACDIYIWAPLAGTCGVLLLSLVITLYCKRGRKKLLYIFKQPFMRPVQTTQEEDGCSCRFPEEEEGGCELRVKFSRSADAPAYQQGQNQLYNELNLGRREEYDVLDKRRGRDPEMGGKPRRKNPQEGLYNELQKDKMAEAYSEIGMKGERRRGKGHDGLYQGLSTATKDTYDALHMQALPPR
notes: Chimeric antigen receptor on primary human T cells
For the molecule B1, the binding result in the assay with EGFR-mFc is listed as “no binding”.

B2: 30D8 (antibody, V domains shown)
VH: EVQLVESGGGLVKPGGSLRLSCEASGFTFSDAWMSWVRQAPGKGLEWVGRIKSKTDGGTTDYVVPLNGRFIISRDDSRNTLYLQLNNLKTEDTAVYYCTTVPGSYGYWGQGTLVTVSS
VL: DIVMTQSPLSLPVTPGEPASISCRSSQSLLHNKRNNYLDWFLQKPGQSPQLLIYLASNRASGVPDRFSGGGSGTDFTLKISRVEAEDVGVYYCMQAQQTPITFGQGTRLEIK
notes: Hybridoma supernatant (AlivaMab mouse); captured/detected via mouse Fc
Usually Kd stands for the constant that tells how readily two partners part at equilibrium. Lower therefore signals higher affinity. For orientation: koff means the first-order rate constant of dissociation. Read a high koff as fast dissociation. In general, kon refers to a measure of how fast the partners come together. Read a low kon as slower complex formation. In assay [1], B2 registered a Kd of 172 nM, a koff of 0.0277 s⁻¹ and a kon of 161000 M⁻¹ s⁻¹. Further, in assay [2], the “fold MFI on EGFRvIII expressing cell line over non-expressing cell lines” value (“fold MFI … over non-expressing cell lines” below) is no less than 10 fold. For the same molecule, the binding result in assay [3] is given as “no binding (tested: 1000 nM)”. Further, in assay [4], the “% positive” value is 98.6% and the MFI was determined as 5160.

B3: 14C11 EGFRvIII specific CAR (other)
chain: QVTLKESGPVLVKPTETLTLTCTVSGFSLNNARMGVSWIRQPPGKALEWFAHIFSTDEKSFRTSLRSRLTLSKDTSKSQVVLTMTNMDPVDTATYYCARDSSNYEGYFDYWGQGILVTVSSGGGGSGGGGSGGGGSGGGGSEIVMTQSPATLSVSPGERATLSCRASQSVSNNLAWYQQKPGQAPRLLIYGASTRATGVPARFSGSDSGTEFSLTISSLQSEDFAVYFCQQYKDWPFTFGPGTKVEIKTTTPAPRPPTPAPTIASQPLSLRPEACRPAAGGAVHTRGLDFACDIYIWAPLAGTCGVLLLSLVITLYCKRGRKKLLYIFKQPFMRPVQTTQEEDGCSCRFPEEEEGGCELRVKFSRSADAPAYQQGQNQLYNELNLGRREEYDVLDKRRGRDPEMGGKPRRKNPQEGLYNELQKDKMAEAYSEIGMKGERRRGKGHDGLYQGLSTATKDTYDALHMQALPPR
notes: as for B1
For the molecule B3, the binding result with EGFR-mFc is reported as “no binding”.

B4: 20G5 (antibody, V domains shown)
VH: EVQLVESGGDLVKPGGSLRLSCAASGFTFTNAWMSWVRQAPGKGLEWVGRIKSKIDGGTTDYAAPVKGRFIISRDDSKNTLSLQMNSLKTEDTAMYYCTTAPGGPFDYWGQGSLVTVSS
VL: DIVLTQSPLSLPVTPGEPASISCRSSQSLLYSDRRNYLDWFLQKPGQSPHLLIYLGSYRASGVPDRFSGSGSGTDFTLKISRVEAEDVGVYYCMQALQIPITFGQGTRLEIK
notes: as for B2
In assay [1], B4 gave a Kd of 231 nM, a koff of 0.0289 s⁻¹ and an on-rate (kon) of 125000 M⁻¹ s⁻¹. Moreover, the binding result in assay [3] is given as “no binding (tested: 1000 nM)”. In assay [4], the “% positive” value is 98.5% and the MFI came to 4640.

B5: 26B9 (antibody, V domains shown)
VH: EVQLVESWGVLVKPGGSLRLSCAASGFIFNNAWMSWVRQAPGKGLEWIGRIKSKSDGGTTDYAAPVKDRFTISRDDSKDTLYLQMNGLKTEDTAVYFCTTAPGGPFDYWGQGTLVTVSS
VL: DIVLTQSPLSLPVTPGEPASISCRSSQSLLHRDGFNYLDWFLQKPGQSPQLLIYLASSRASGVPDRFSGSDSGTDFTLKISRVEAEDVGVYYCMQALQTPITFGQGTRLEIK
notes: as for B2
As for B5, in assay [1], the Kd came to 244 nM, the koff is 0.032 s⁻¹ and the kon came to 131000 M⁻¹ s⁻¹. In addition, the “fold MFI … over non-expressing cell lines” value in assay [2] was no less than 10 fold. In assay [3], the binding result is listed as “no binding (tested: 1000 nM)”. Moreover, in assay [4], the “% positive” value was 98.6% and the MFI came out at 5400.

B6: h62G7-L6/EQ EGFRvIII specific CAR (other)
chain: DVVMTQSPLSLPVTLGQPASISCKSSQSLLYSNGKTYLNWFQQRPGQSPRRLIYQVSKLDSGVPDRFSGSGSGTDFTLKISRVEAEDVGVYYCGQDTHFPLTFGGGTKVEIKGGGGSGGGGSGGGGSGGGGSQVQLVQSGAEVKKPGASVKVSCKASGYTFTDYTLHWVRQAPGQGLEWMGGIWPITGGTTYNQKFKGRVTMTRDTSTSTVYMELSSLRSEDTAVYYCARGEAQGSWGQGTLVTVSSTTTPAPRPPTPAPTIASQPLSLRPEACRPAAGGAVHTRGLDFACDIYIWAPLAGTCGVLLLSLVITLYCKRGRKKLLYIFKQPFMRPVQTTQEEDGCSCRFPEEEEGGCELRVKFSRSADAPAYQQGQNQLYNELNLGRREEYDVLDKRRGRDPEMGGKPRRKNPQEGLYNELQKDKMAEAYSEIGMKGERRRGKGHDGLYQGLSTATKDTYDALHMQALPPR
notes: as for B1
As to B6, the binding result in the assay with EGFR-mFc is reported as “no binding”.

B7: 20E12 (antibody, V domains shown)
VH: EVNLVESGGGLVKPGGSLRLSCEASGFTFSYAWMSWVRQAPGKGLEWVGRIKSIADGGATDYAAPVRNRFTISRDDSRNTLYLEMHSLKTEDTAVYYCTTIPGNDAFDMWGQGTMVTVSS
VL: DIVLTQSPLSLSVTPGEPASISCRSSQSLLYSNGKNYLDWFLHKPGQSPQLLIYLGSNRASGVPDRFSGSGSGIDFILKISRVEAEDVGVYYCMQAQQTPITFGQGTRLEIK
notes: as for B2
In assay [1], B7 showed a dissociation constant Kd of 353 nM, a koff of 0.0141 s⁻¹ and a kon of 39900 M⁻¹ s⁻¹. In assay [2], the “fold MFI … over non-expressing cell lines” value is no less than 10 fold. Also, the binding result in assay [3] is “no binding (tested: 1000 nM)”. Also, in assay [4], the “% positive” value was determined as 97.9% and the MFI was found to be 3980.

B8: 32G8 (antibody, V domains shown)
VH: EVNLVESGGGLVKPGGSLRLSCEASGFTFSYAWMSWVRQAPGKGLEWVGRIKSITDGGVIDYAAPVRNRCTISRDDSRNTLYLEMHSLKTEDTAVYYCTTIPGNDDFDMWGQGRMVTVSS
VL: DIVLTQSPLSLSVTPGEPASISCRSSQSLLYSNGKNYLDWFLHKPGQSPQLLIYLGSNRASGVPDRFSGSGSGIDFILKISRVEAEDVGVYYCMQAQQTPITFGQGTRLEIK
notes: as for B2
B8: in assay [1], the Kd amounted to 1790 nM, the koff turned out to be 0.0122 s⁻¹ and the kon was determined as 6820 M⁻¹ s⁻¹. In addition, the “fold MFI … over non-expressing cell lines” value in assay [2] was no less than 10 fold. In assay [3], the binding result was “no binding (tested: 1000 nM)”. Further, in assay [4], the “% positive” value came out at 98.6% and the MFI came out at 3730.

B9: 34E7 (antibody, V domains shown)
VH: EVNLVESGGGLVKPGGSLRLSCEASGFTFSYAWMSWVRQAPGKGLEWVGRIKSINDGGATDYASPVRNRFTISRDDSRNMLYLEMHSLKTEDTAVYYCTTIPGNDAFDMWGQGTLVTVSS
VL: DIVLTQSPLSLSVTPGEPASISCRSTQSLLYSNGKNYLDWFLHKPGQSPQLLIFLGSIRASGVPDRFSGSGSGIDFILKISRVEAEDVGVYYCMQAQQTPITFGQGTRLEIK
notes: as for B2
In assay [1], B9 registered a Kd of 340 nM, a koff of 0.0128 s⁻¹ and an on-rate (kon) of 37700 M⁻¹ s⁻¹. Further, the “fold MFI … over non-expressing cell lines” value in assay [2] is no less than 10 fold. The binding result in assay [3] was “no binding (tested: 1000 nM)”. Further, in assay [4], the “% positive” value came to 98.5% and the MFI is 4130.

B10: 20B9 EGFRvIII specific CAR (other)
chain: QVTLKESGPVLVKPTETLTLTCTVSGFSLSNARMGVSWIRQPPGKALEWLGHIFSTDEKSYSTSLRGRITISKDTSRGLVVLTLTNMDPVDTATYYCARDSSNYEGYFDFWGPGFLVTVSSGGGGSGGGGSGGGGSGGGGSEIVMTQSPATLSVSPGERATLSCRVSQSIGANLAWYQQKFGQAPRLLIYGASTRATGIPVRFSGGGSGTEFTLTISSLQSEDFAIYSCQQYIYWPFTFGPGTTVDIKTTTPAPRPPTPAPTIASQPLSLRPEACRPAAGGAVHTRGLDFACDIYIWAPLAGTCGVLLLSLVITLYCKRGRKKLLYIFKQPFMRPVQTTQEEDGCSCRFPEEEEGGCELRVKFSRSADAPAYQQGQNQLYNELNLGRREEYDVLDKRRGRDPEMGGKPRRKNPQEGLYNELQKDKMAEAYSEIGMKGERRRGKGHDGLYQGLSTATKDTYDALHMQALPPR
notes: as for B1
With B10, the binding result in the assay with EGFR-mFc is recorded as “no binding”.
